According to the supplement of paper PMC7877785:
± gives the uncertainty stated by the source.

Test: self-splicing fitness, log relative to wild type (ln ratio); higher = more splicing; Tetrahymena group I intron in knt gene, E. coli kanamycin selection, DiMSum; sequences stand for … in CUCUCU…GGAGGGAAAAGUUAUCAGGCAUGCACCUGGUAGCUAGUCUUUAAACCAAUAGAUUGCAUCGGUUUAAAAGGCAAGACCGUCAAAUUGCGGGAAAGGGGUCAACAGCCGUUCAGUACCAAGUCUCAGGGGAAACUUUGAGAUGGCCUUGCAAAGGGUAUGGUAAUAAGCUGACGGACAUGGUCCUAACCACGCAGCCAAGUCCUAAGUCAACAGAUCUUCUGUUGAUAUGGAUGCAGUUCACAGACUAAAUGUCGGUCGGGGAAGAUGUAUUCUUCUCAUAAGAUAUAGUCGGACCUCUCCUUAAUGGGAGCUAGCGGAUGAAGUGAUGCAACACUGGAGCCGCUGGGAACUAAUUUGUAUGCGAAAGUAUAUUGAUUAGUUUUGGAGUACUCGUGGUCG
Procedure, shortened: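 Pooled colonies went to amplicon sequencing on an Illumina HiSeq 2500 after six replicate transformations. The plates were LB agar with 100 μg/mL carbenicillin, 50 μM IPTG and 0.2% rhamnose, with or without 25 μg/mL kanamycin, incubated overnight at 37°C or 30°C. The E. coli BL21(DE3) library had all eight P1ex-region intron nucleotides randomised, the intron placed in the knt kanamycin-resistance gene on pET-22b(+). DiMSum fitness is the error-weighted combination of replicate fold changes, kanamycin against none, normalised to wild type.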

| Sequence | self-splicing fitness (ln) (37 °C) | self-splicing fitness (ln) (30 °C) |
| --- | --- | --- |
| CGUGAGCAAUAUUACGCGCU | -1.8 ± 0.36 |  |
| CGUGAGCAAUAUUACGCGGU | -2.06 ± 0.32 | -3.83 ± 0.34 |
| CGUGAGCAAUAUUACGCUAC | -0.816 ± 0.38 |  |
| CGUGAGCAAUAUUACGCUAG | -1.47 ± 0.21 | -2.9 ± 0.12 |
| CGUGAGCAAUAUUACGCUGC |  | -2.64 ± 0.32 |
| CGUGAGCAAUAUUACGGACU | -0.345 ± 0.23 | -1.09 ± 0.14 |
| CGUGAGCAAUAUUACGGAUC | -1.88 ± 0.25 | -4.24 ± 0.33 |
| CGUGAGCAAUAUUACGUAAU | -2.19 ± 0.25 | -3.22 ± 0.26 |
| CGUGAGCAAUAUUACGUAUC | -2.42 ± 0.27 | -1.84 ± 0.16 |
| CGUGAGCAAUAUUACGUCUG | 0.0039 ± 0.094 | -0.656 ± 0.072 |
| CGUGAGCAAUAUUACGUGCU | -2.97 ± 0.34 | -3.78 ± 0.29 |
| CGUGAGCAAUAUUACGUUUA |  | -3.08 ± 0.39 |
| CGUUAGCAAUAUUACGAAAC | -1.84 ± 0.37 |  |
| CGUUAGCAAUAUUACGAAAU | -2.2 ± 0.28 | -3.82 ± 0.35 |
| CGUUAGCAAUAUUACGAAUG | 0.491 ± 0.12 | -1.92 ± 0.15 |
| CGUUAGCAAUAUUACGAAUU | -2.39 ± 0.33 |  |
| CGUUAGCAAUAUUACGACCG | -0.193 ± 0.2 | -1.13 ± 0.14 |
| CGUUAGCAAUAUUACGACUA | 0.415 ± 0.14 | -1.12 ± 0.16 |
| CGUUAGCAAUAUUACGACUU | -0.0418 ± 0.17 | -1.03 ± 0.12 |
| CGUUAGCAAUAUUACGCCCU | -0.204 ± 0.19 | -1.26 ± 0.2 |
| CGUUAGCAAUAUUACGCGAA | -3.1 ± 0.43 | -3.36 ± 0.41 |
| CGUUAGCAAUAUUACGCUCG | -1.38 ± 0.18 | -1.41 ± 0.14 |
| CGUUAGCAAUAUUACGCUUA | -1.86 ± 0.25 | -3.67 ± 0.28 |
| CGUUAGCAAUAUUACGGAAU | -2.07 ± 0.36 |  |
| CGUUAGCAAUAUUACGGAGG | -1.01 ± 0.11 | -1.43 ± 0.12 |
| CGUUAGCAAUAUUACGGCGG | -0.396 ± 0.12 | -0.628 ± 0.1 |

| Sequence | self-splicing fitness (ln) (37 °C) | self-splicing fitness (ln) (30 °C) |
| --- | --- | --- |
| CGUUAGCAAUAUUACGGGAC | -3.7 ± 0.39 | -2.68 ± 0.34 |
| CGUUAGCAAUAUUACGGUAU | -2.2 ± 0.22 | -3.23 ± 0.22 |
| CGUUAGCAAUAUUACGGUCU | -1.22 ± 0.16 | -1.56 ± 0.18 |
| CGUUAGCAAUAUUACGGUGG | -0.115 ± 0.079 | -0.853 ± 0.056 |
| CGUUAGCAAUAUUACGUAGC | -2.68 ± 0.25 | -3.37 ± 0.22 |
| CGUUAGCAAUAUUACGUCAG | 0.0149 ± 0.14 | -0.851 ± 0.13 |
| CGUUAGCAAUAUUACGUCAU | -2.85 ± 0.3 | -2.58 ± 0.21 |
| CGUUAGCAAUAUUACGUCCG | -0.407 ± 0.2 | -0.128 ± 0.18 |
| CGUUAGCAAUAUUACGUCUU | -1.29 ± 0.099 | -4.03 ± 0.26 |
| CGUUAGCAAUAUUACGUGUC | -2.18 ± 0.18 | -4.28 ± 0.37 |
| CGUUAGCAAUAUUACGUUCA | -0.192 ± 0.083 | -0.69 ± 0.078 |
| CGUUAGCAAUAUUACGUUCG | -1.02 ± 0.13 | -1.38 ± 0.091 |
| CUAAAGCAAUAUUACGAAGC | -2.06 ± 0.42 |  |
| CUAAAGCAAUAUUACGAAUG | 0.497 ± 0.088 | 0.281 ± 0.067 |
| CUAAAGCAAUAUUACGACUU | -3.47 ± 0.39 | -3.45 ± 0.2 |
| CUAAAGCAAUAUUACGCCAC |  | -2.89 ± 0.49 |
| CUAAAGCAAUAUUACGCGCC | -2.6 ± 0.4 | -2.84 ± 0.23 |
| CUAAAGCAAUAUUACGCGCG | -0.176 ± 0.095 | 0.227 ± 0.072 |
| CUAAAGCAAUAUUACGCUUG | -1.58 ± 0.17 | -2.8 ± 0.15 |
| CUAAAGCAAUAUUACGGAUG | -0.202 ± 0.069 | -0.152 ± 0.049 |
| CUAAAGCAAUAUUACGGCCU | -2.5 ± 0.28 | -3.01 ± 0.15 |
| CUAAAGCAAUAUUACGGGAA | -2.1 ± 0.17 | -3.28 ± 0.2 |
| CUAAAGCAAUAUUACGGGGG | -1.15 ± 0.13 | -1.87 ± 0.13 |
| CUAAAGCAAUAUUACGGGGU | -2.94 ± 0.17 | -3.19 ± 0.14 |
| CUAAAGCAAUAUUACGGUAG | -0.0448 ± 0.059 | -0.409 ± 0.043 |
